# The supplement of paper PMC10567573
# ± gives the standard deviation.
# Assay: protein stability index of a GFP-peptide fusion (GPS, HEK-293T) (PSI 1-6); higher = more stable
# Settings: c terminus: a fixed tail appended
# 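Note: 24-mer peptide tiles fused after GFP, lentivirally expressed, FACS-sorted into six equal bins by GFP/DsRed ratio, decoded by Illumina sequencing, PSI is the read-weighted mean bin number.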
Sequence,protein stability index (treatment: DMSO),"protein stability index (treatment: MLN4924 1 uM, 8 h)"
STNDKTVKLWKVSERDKRPEGYNL [PPP2R2B],3.93 ± 0.12,4.19 ± 0.14
STSLLTSAGNRTHKARTRPKARKQ [ADAMTSL2],4.89 ± 0.35,4.92 ± 0.25
SVGDPCGGAICGGPDHRLRLWRLF [SLC25A25],2.35 ± 0.59,2.62 ± 0.21
SVPFSFDPNTAAGWLSVSDDLTSV [TRIM35],3.42 ± 0.25,3.52 ± 0.23
SVVTEDGPEPKDKGSLPQPPITEV [ZNF232],5.5 ± 0.2,5.48 ± 0.18
SVVTTARMQVLKRQVQSLMVHQRK [SMARCE1],2.79 ± 0.14,2.94 ± 0.27
SWARPRPDEERPLRRPRPVQRTQS [RASAL3],4.46 ± 0.36,4.57 ± 0.26
SYSTSEQAELSYKKVSEGPPLRLW [DLC1],2.73 ± 0.36,3.26 ± 0.18
TADRIIRVYDGREILTCGRDGEPE [RBBP5],4.55 ± 0.12,4.49 ± 0.31
TAVAQAPPAVASSSLFDLSVLKLH [SERTAD1],3.17 ± 0.061,3.24 ± 0.2
TCTWKLPTLAKFSPYLGQMINLRR [PRAME],2.28 ± 0.27,1.89 ± 0.3
TDNQVRLRKRKEIREDRDRARLDS [DLC1],5.18 ± 0.39,5.07 ± 0.3
TDQLEFTVEPRLLVADLLYWKDTR [RTN2],2.43 ± 0.23,2.54 ± 0.33
TEEVKFYQLGEEALLKFREDEGFV [KCNA4],4.16 ± 0.3,4.3 ± 0.24
TERSPGPRLQELLGPSPQRDPQAV [ZNF263],4.79 ± 0.2,4.91 ± 0.35
TESSNTTIEDEDVKARKQEIIKVT [CAMK2D],5.21 ± 0.29,5.07 ± 0.25
TFDTGCLTLSQYILLDPILMFFIM [POMT2],2.35 ± 0.52,2.33 ± 0.36
TFFCPNDTYNDMATLFFNPQESAI [CLCN6],2.23 ± 0.32,2.26 ± 0.22
TGFPQYAQLYEDFLFPIDISLVKR [DLC1],2.37 ± 0.24,2.35 ± 0.54
TGIEYIVAQGPTNQGLNVMVWNQN [ADAMTSL2],2.175 ± 0.019,2.1 ± 0.24
TGIVNHTHSRMGSIMSTGIVQGSS [CARM1],3.12 ± 0.2,3.5 ± 0.63
TGNVCIEEIDVDGKFIRLKNTSEQ [LMNB1],4.76 ± 0.29,4.76 ± 0.15

Sequence,protein stability index (treatment: DMSO),"protein stability index (treatment: MLN4924 1 uM, 8 h)"
TGTSKRYQLCRVQECPPDGRSFRE [ADAMTSL2],2.58 ± 0.71,3.09 ± 0.62
THIMKGEDDALSDKHGCPAYVSPE [TRIB1],5.12 ± 0.14,4.91 ± 0.22
TIAQSLEHSWIKAIRRRNVRGEDS [DAPK3],3.64 ± 0.41,3.4 ± 0.15
TIDMGPQLKVVERTRTATMLCAAS [PTPRD],3.18 ± 0.23,3.49 ± 0.21
TIVTDVFQGSMRIFTKKLPHPDLP [USP39],2.31 ± 0.099,2.38 ± 0.29
TKKKKKTIVTDVFQGSMRIFTKKL [USP39],2.49 ± 0.26,2.83 ± 0.11
TKKRKTFDSSRQRAEGTDIPTVKP [ZC2HC1A],4.86 ± 0.22,4.79 ± 0.2
TLEALGYKGPLLEEQALTKAAEGG [FAM98B],4.61 ± 0.23,4.66 ± 0.083
TLKEAYVQKLVKVCTDTDRWSLIS [TENT5C],2.58 ± 0.4,2.4 ± 0.41
TLMTMAIRIIDRALKEDFGFKHRL [PRIM1],2.99 ± 0.62,2.9 ± 0.54
TLSAELVPWLNLKKQDENEGIKVE [CEP70],4.33 ± 0.057,4.22 ± 0.098
TMEYSMVGRTVLDMLIREVVEKRL [RSPH3],2.68 ± 0.54,2.64 ± 0.3
TNCQKVLNMWCCCFFKRRKRKTIQ [CSNK1G3],4.01 ± 0.26,3.77 ± 0.21
TPLPETGYWRVRLWNGDKYAATTT [TRIM39],2.47 ± 0.34,2.37 ± 0.2
TQEFLSACKSLQTRQNGIQTNKPA [STX5],4.18 ± 0.21,4.14 ± 0.23
TQEGAKDLEVDMNKTEVTPRLWTT [ACSBG2],3.55 ± 0.62,4.03 ± 0.68
TQNHAASALPTGSPKRGTAPGDLS [FBF1],5.08 ± 0.18,5.13 ± 0.21
TQTWCTQSWNNQAWNSPFYNCGEE [NANOGP8],3.07 ± 0.25,3.2 ± 0.12
TREWTQLKPNNLSCDLPEERYRHE [KLHDC10],4.61 ± 0.3,4.71 ± 0.13
TRRLRLAHVGMELQLKQELAMLNA [SCARA5],2.65 ± 0.23,2.55 ± 0.22
TRWYRAPELLVGDTQYGSSVDIWA [CDKL4],1.97 ± 0.59,2.26 ± 0.39
TSDVYSSDAAFGGILERYWLSSRA [MYORG],2.62 ± 0.11,2.47 ± 0.092
